Columns and labels:
[1] = target: SP6 tailspike protein gp46 (bacteriophage SP6); test: cryo-EM structure
[2] = target: SP6 tailspike protein gp47 (bacteriophage SP6); test: cryo-EM structure

Substance | stoichiometry N [1] | stoichiometry N [2]
SP6 tailspike protein gp46 (natural protein) | 3 | –
SP6 tailspike protein gp47 (natural protein) | – | 3
